Experiments:
RAD52 FL = biological target: T1, RAD52 FL (human, UniProt P43351 1-418); experiment: fluorescence polarization
T1 sequence: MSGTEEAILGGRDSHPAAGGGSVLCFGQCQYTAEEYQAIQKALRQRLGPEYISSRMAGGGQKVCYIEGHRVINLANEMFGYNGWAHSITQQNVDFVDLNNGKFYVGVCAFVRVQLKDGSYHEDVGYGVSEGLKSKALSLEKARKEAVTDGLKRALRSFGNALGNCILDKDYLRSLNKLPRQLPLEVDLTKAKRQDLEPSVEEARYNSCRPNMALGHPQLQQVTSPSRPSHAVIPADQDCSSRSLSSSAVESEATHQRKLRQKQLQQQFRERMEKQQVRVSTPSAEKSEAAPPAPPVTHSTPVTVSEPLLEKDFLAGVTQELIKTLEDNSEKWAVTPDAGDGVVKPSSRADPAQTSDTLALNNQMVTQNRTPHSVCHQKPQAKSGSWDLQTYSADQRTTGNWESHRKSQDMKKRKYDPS

dynamic light scattering = biological target: the molecule itself; experiment: dynamic light scattering

Binder: TTTTTTTTTTTTTTTTTTTTTTTTTTTTTT (ssDNA) [dT30 ssDNA]
- Kd (RAD52 FL): 37.2 ± 0.4 nM

B1: Histidine-tagged human RAD52 N-terminal domain (1-212) (domain or fragment, UniProt P43351 1-212, looked up)
chain: MSGTEEAILGGRDSHPAAGGGSVLCFGQCQYTAEEYQAIQKALRQRLGPEYISSRMAGGGQKVCYIEGHRVINLANEMFGYNGWAHSITQQNVDFVDLNNGKFYVGVCAFVRVQLKDGSYHEDVGYGVSEGLKSKALSLEKARKEAVTDGLKRALRSFGNALGNCILDKDYLRSLNKLPRQLPLEVDLTKAKRQDLEPSVEEARYNSCRPNM
- stoichiometry N (dynamic light scattering): ~11

— doi:10.1101/2023.04.03.535362 (bioRxiv, 2023)
